Target: nucleosome core particle labeled with H4Kc20me2
Assay: native gel or EMSA

“human Origin Recognition Complex subunit 1 BAH domain, R105Q mutant (from UniProt Q13415 45-171) (domain or fragment)” was tested. Which fold reduction of affinity against wild type hORC1BAH did it give?
Its fold reduction of affinity against wild type hORC1BAH is over 2 fold.

— article PMC4654454 (ACS chemical biology, 2015)
